# According to paper PMC5646864:
# T1: Escherichia coli CsdE (Escherichia coli), P0AGF2
# T1 chain: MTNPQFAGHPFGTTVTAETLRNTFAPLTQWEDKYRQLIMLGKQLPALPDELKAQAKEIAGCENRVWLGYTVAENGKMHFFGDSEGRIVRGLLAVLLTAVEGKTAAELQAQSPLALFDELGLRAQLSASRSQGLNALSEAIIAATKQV
# Assays:
# Cys61 = Cys61 (UniProt position 61, KEIAGCENRVW); settings: not stated (reduced thiol implied; discussed for free CsdE); cited from earlier work
# [1] = biological target: T1, Escherichia coli CsdE (Escherichia …); experiment: crystal structure; native CsdE at 40 mg/ml in 10 mM Tris-HCl pH 8, 2 mM 2-mercaptoethanol; crystallised in 0.1 M sodium citrate pH 6.5, 20% (w/v) PEG-MME 2000 at 297 K; two monomers in the asymmetric unit joined by a Cys61-Cys61 disulfide bridge; phased by Se-SAD on SeMet crystals; settings: remark: other sources report otherwise
Molecule,pKa (Cys61),stoichiometry N [1]
Sulfur acceptor protein CsdE (YgdK) (Escherichia coli),6.5,
"Escherichia coli CsdE, P0AGF2 1-147 (natural protein) MTNPQFAGHPFGTTVTAETLRNTFAPLTQWEDKYRQLIMLGKQLPALPDELKAQAKEIAGCENRVWLGYTVAENGKMHFFGDSEGRIVRGLLAVLLTAVEGKTAAELQAQSPLALFDELGLRAQLSASRSQGLNALSEAIIAATKQV",,2
